Experimental data published in the supplement of paper PMC10724198.
± gives the standard deviation of the averaged measurements.

Tested on: Saccharomyces cerevisiae
Assay: protein stability index of tFT-peptide fusion (C-terminal peptide) (PSI (0-1 scale)); higher = more stable (slower turnover)
Settings: genetic background: wild type; temperature: 30 C
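Also: PSI is a weighted mean of sequencing reads over stability bins, variants kept only with over 10 reads, mCherry proximal and sfGFP distal, peptide attached via GGGS linker.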

Sequence | protein stability index
PPAPTHSAPSQI | 0.655 ± 0.07
PPARTPPGLPRP | 0.723 ± 0.29
PPASPPAPRPPV | 0.759 ± 0.018
PPATTPASTNLQ | 0.7 ± 0.017
PPAVDSSPRSRD | 0.7148 ± 0.0019
PPCAPFSPPALP | 0.659 ± 0.05
PPCCFPRSPSPS | 0.714 ± 0.049
PPCPAPLSPPLG | 0.676 ± 0.049
PPCPSPPLFLPS | 0.687 ± 0.063
PPCRREEQTDNH | 0.682 ± 0.059
PPCTVKAQRAYD | 0.694 ± 0.035
PPDALTHPTPPQ | 0.703 ± 0.013
PPFFLLLPPTIF | 0.67 ± 0.063
PPFPKFPRPRLH | 0.738 ± 0.04
PPFSHLPYLLPP | 0.685 ± 0.015
PPFTARPATLAR | 0.565 ± 0.017
PPFVPGEVRRTV | 0.6867 ± 0.0036
PPGLRSYACCRN | 0.7615 ± 0.0046
PPGNPPPRRLTS | 0.695 ± 0.053
PPGPLPPLSSTP | 0.661 ± 0.034
PPGPVVPPPPPD | 0.664 ± 0.027

Sequence | protein stability index
PPHFPPRPRPGP | 0.685 ± 0.015
PPHHSLSPPLPP | 0.6607 ± 0.0014
PPHPPAPHPSPT | 0.733 ± 0.069
PPHPPNPLPTPQ | 0.829 ± 0.17
PPHSALPLPPSP | 0.726 ± 0.039
PPHSHCPSAPHN | 0.643 ± 0.082
PPLALPPGPARP | 0.738 ± 0.016
PPLAMVLYSLFE | 0.556 ± 0.013
PPLAPDPPPRVY | 0.654 ± 0.013
PPLAPLPSAPLR | 0.674 ± 0.058
PPLDPPPAPPPP | 0.693 ± 0.08
PPLFPYRPPQPT | 0.697 ± 0.099
PPLHPPPPAFVF | 0.64175 ± 0.00037
PPLHSSPPAVPP | 0.699 ± 0.038
PPLLPLSPRPPA | 0.704 ± 0.089
PPLLPPPHPFPP | 0.6656 ± 0.0053
PPLLPPPPAFVF | 0.668 ± 0.0069
PPLLPRLLTPTP | 0.671 ± 0.087
PPLLPSPPRPPL | 0.774 ± 0.078
PPLNPPRSPFSP | 0.6814 ± 0.0018
PPLPAPPQSPHT | 0.705 ± 0.028

Sequence | protein stability index
PPLPLTLRSSPS | 0.677 ± 0.031
PPLPPLPAPSPV | 0.652 ± 0.021
PPLPPPSVRPSS | 0.63 ± 0.028
PPLPPPTPLQCL | 0.696 ± 0.027
PPLPPSLPPPPP | 0.63 ± 0.12
PPLPPSPPCPPA | 0.642 ± 0.079
PPLPPSSPRSLL | 0.701 ± 0.018
PPLPRLPPPPLP | 0.627 ± 0.029
PPLPRSPSPPPP | 0.644 ± 0.028
PPLRLSHFPRAD | 0.659 ± 0.06
PPLRPAADFRTT | 0.733 ± 0.093
PPLRPGLLYSPS | 0.687 ± 0.019
PPLSLSPYPLPH | 0.69464 ± 0.0002
PPLVHPCPSSHI | 0.801 ± 0.088
PPNTSVPSSLGR | 0.667 ± 0.038
PPPAPARPPTPP | 0.686 ± 0.11
PPPAPPCRLMSP | 0.719 ± 0.059
PPPAPPLLPPLP | 0.718 ± 0.033
PPPAPPPSPPSN | 0.675 ± 0.044
PPPAPPTPPSPP | 0.628 ± 0.028
PPPARSRCTHPT | 0.706 ± 0.026

Sequence | protein stability index
PPPASLTSPRQP | 0.731 ± 0.013
PPPASPLVPPSP | 0.712 ± 0.021
PPPAYTPPLPPP | 0.669 ± 0.0073
PPPCPPPRRHPP | 0.605 ± 0.022
PPPDSPPLPAPP | 0.659 ± 0.033
PPPFLQPLPASP | 0.729 ± 0.045
PPPFSPPAPSPP | 0.669 ± 0.053
PPPHAKPPPGPL | 0.672 ± 0.019
PPPHIPPPPLSA | 0.682 ± 0.025
PPPHPLPPLPAT | 0.744 ± 0.043
PPPIPGDPTPCP | 0.667 ± 0.021
PPPLACLPLSLR | 0.71 ± 0.043
PPPLACPSPPVT | 0.734 ± 0.12
PPPLFPALHHPP | 0.639 ± 0.051
PPPLLPPHLPLL | 0.717 ± 0.032
PPPLLPPRPLAP | 0.731 ± 0.019
PPPLLPPTLPPR | 0.713 ± 0.047
PPPLPLPPPLPP | 0.533 ± 0.046
